# Laboratory results reported in PMC3168947 (Molecular cell, 2011).
# Read-outs that look alike come from different tables or passages of the source. No end group written: not given here.
# T1: ClpS adaptor (intact, wild type) (E. coli, UniProt P0A8Q6 1-106)
# T1 sequence (looked up): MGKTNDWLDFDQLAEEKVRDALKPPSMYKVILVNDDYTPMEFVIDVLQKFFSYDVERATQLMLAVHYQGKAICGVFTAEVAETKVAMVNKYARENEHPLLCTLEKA
# T2: ClpS^core (E. coli ClpS residues 26-106) (E. coli, UniProt P0A8Q6 26-106)
# T2 sequence (looked up): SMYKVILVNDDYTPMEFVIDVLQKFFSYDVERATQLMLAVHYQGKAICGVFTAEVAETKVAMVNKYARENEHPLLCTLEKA
# T3: D20 ClpS with ClpA6 (E. coli, UniProt P0ABH9 1-758; P0A8Q6 20-106)
# T3 sequence (looked up) 1: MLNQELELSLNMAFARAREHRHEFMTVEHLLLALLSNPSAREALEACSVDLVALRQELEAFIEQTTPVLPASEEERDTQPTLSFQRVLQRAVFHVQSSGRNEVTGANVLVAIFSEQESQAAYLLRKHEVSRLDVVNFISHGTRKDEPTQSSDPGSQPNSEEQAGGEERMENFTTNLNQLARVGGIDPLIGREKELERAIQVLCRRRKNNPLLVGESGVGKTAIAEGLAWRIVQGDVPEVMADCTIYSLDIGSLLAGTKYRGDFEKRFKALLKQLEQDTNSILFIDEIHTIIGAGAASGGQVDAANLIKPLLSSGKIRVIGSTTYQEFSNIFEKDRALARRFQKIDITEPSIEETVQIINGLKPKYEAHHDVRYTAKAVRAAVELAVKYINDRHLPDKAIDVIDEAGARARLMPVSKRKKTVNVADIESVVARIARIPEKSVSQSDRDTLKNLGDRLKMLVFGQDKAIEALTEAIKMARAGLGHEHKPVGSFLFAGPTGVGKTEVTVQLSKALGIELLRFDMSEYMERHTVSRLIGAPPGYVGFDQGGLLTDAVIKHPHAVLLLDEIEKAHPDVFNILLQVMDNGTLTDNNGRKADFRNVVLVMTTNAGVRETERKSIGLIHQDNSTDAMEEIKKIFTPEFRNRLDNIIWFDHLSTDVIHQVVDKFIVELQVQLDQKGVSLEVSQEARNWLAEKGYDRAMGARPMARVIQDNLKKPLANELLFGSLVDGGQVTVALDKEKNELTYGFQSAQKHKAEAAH
# T3 sequence (looked up) 2: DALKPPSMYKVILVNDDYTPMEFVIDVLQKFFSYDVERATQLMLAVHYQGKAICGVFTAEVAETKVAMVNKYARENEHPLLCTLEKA
# T4: L22 ClpS with ClpA6 (E. coli, UniProt P0ABH9 1-758; P0A8Q6 22-106)
# T4 sequence (looked up) 1: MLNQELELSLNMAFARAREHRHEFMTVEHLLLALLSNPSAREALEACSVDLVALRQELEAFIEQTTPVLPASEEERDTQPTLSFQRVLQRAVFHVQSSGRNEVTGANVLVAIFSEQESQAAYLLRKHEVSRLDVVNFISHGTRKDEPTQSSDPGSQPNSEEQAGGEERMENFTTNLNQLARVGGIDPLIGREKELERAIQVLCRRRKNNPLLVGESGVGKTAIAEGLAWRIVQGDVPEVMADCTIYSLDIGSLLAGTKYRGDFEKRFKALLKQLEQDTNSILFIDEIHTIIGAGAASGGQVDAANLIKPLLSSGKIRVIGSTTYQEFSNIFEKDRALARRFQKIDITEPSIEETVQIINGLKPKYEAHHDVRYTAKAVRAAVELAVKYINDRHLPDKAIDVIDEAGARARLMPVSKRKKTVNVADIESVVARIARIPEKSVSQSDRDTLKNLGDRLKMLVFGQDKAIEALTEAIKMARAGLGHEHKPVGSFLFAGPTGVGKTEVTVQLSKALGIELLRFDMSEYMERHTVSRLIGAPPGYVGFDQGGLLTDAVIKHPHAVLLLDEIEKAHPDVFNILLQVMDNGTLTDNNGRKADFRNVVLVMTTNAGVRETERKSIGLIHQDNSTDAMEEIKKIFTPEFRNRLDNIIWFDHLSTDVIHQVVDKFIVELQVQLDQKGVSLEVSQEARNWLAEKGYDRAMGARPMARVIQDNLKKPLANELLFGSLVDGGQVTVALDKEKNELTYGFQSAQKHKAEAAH
# T4 sequence (looked up) 2: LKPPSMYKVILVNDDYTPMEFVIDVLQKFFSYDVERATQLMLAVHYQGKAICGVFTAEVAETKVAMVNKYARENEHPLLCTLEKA
# T5: ClpS-ClpA6 complex (E. coli, UniProt P0ABH9 1-758; P0A8Q6 1-106)
# T5 sequence (looked up) 1: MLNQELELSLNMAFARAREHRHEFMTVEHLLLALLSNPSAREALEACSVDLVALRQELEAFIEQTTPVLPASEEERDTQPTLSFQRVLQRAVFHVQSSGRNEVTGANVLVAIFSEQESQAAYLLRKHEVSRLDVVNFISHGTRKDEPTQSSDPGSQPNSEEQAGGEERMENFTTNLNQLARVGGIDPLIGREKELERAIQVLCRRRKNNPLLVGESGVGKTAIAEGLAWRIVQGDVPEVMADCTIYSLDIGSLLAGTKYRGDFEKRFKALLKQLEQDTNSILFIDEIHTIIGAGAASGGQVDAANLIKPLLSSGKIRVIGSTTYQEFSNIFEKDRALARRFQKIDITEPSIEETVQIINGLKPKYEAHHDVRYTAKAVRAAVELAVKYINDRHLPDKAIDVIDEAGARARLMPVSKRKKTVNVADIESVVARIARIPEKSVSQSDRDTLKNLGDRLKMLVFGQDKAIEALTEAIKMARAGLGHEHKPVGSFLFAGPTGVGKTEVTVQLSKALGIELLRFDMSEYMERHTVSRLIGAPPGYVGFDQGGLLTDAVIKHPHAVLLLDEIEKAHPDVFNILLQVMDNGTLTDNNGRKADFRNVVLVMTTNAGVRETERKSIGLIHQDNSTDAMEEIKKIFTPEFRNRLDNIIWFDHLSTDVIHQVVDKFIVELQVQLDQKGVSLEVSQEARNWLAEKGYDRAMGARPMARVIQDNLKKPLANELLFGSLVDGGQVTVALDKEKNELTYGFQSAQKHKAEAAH
# T5 sequence (looked up) 2: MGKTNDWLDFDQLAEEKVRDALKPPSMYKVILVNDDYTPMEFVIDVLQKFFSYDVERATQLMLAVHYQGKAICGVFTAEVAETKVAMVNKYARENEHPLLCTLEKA
# T6: ClpA6 (hexameric ClpA unfoldase, stabilised by ATPγS) (E. coli, UniProt P0ABH9 1-758)
# T6 sequence (looked up): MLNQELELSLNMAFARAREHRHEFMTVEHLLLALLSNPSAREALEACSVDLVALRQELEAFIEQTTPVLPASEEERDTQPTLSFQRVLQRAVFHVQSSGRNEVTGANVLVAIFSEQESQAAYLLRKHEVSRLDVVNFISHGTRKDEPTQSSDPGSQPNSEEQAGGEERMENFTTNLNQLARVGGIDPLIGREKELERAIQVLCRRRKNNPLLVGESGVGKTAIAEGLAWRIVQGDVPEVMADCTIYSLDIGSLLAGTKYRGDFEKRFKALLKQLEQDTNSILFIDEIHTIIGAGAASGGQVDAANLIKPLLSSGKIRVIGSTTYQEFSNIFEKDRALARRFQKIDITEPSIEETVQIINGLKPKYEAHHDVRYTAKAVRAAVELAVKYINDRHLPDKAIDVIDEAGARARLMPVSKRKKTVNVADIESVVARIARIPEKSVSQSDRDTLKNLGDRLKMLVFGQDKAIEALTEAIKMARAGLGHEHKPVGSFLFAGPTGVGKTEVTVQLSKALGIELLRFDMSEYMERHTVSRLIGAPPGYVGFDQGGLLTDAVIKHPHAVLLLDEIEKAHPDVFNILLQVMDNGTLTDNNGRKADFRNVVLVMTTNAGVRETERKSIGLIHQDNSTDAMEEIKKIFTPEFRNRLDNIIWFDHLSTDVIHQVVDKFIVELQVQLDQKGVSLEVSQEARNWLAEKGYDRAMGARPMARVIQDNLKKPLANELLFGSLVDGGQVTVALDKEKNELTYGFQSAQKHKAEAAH
# What was measured:
# [1] = target: ClpA6 (Escherichia coli, UniProt P0A8Q6+P0ABH9, C101S/C73V/E96C); format: binding, E. coli
# [2] = system: ^ΔLClpA6; assay: Binding of ClpS*^F to ^ΔLClpA6, with or without peptide; set-up: species or system E. coli; conditions: 20 μM LLYVQRDSKEC; Fig. 3E; in words
# [3] = target: T1, ClpS adaptor (intact, wild type); assay: fluorescence polarisation
# [4] = target: T2, ClpS^core (E. coli ClpS residues 26-106); assay: fluorescence polarisation
# [5] = target: T3, D20 ClpS with ClpA6; assay: fluorescence polarisation
# [6] = target: T4, L22 ClpS with ClpA6; assay: fluorescence polarisation
# [7] = target: T5, ClpS-ClpA6 complex; assay: fluorescence polarisation
# [8] = target: the molecule itself; assay: crystal structure
# [9] = target: T6, ClpA6 (hexameric ClpA unfoldase, …); assay: fluorescence polarisation
# [10] = target: T6, ClpA6 (hexameric ClpA unfoldase, …); assay: fluorescence polarisation; remark: listed apart in the source
# [11] = target: T6, ClpA6 (hexameric ClpA unfoldase, …); assay: fluorescence polarisation; remark: listed apart in the source
# [12] = system: ClpA; assay: FeBABE cleavage of ClpA by FeBABE-modified ^Q12CClpS; set-up: species or system E. coli; conditions: SDS-PAGE; in words
# [13] = system: ClpAP; assay: ClpAPS degradation of YLFVQELA-GFP; format: biochemical, E. coli; conditions: YLFVQELA-GFP degradation; Vmax = Etotal•kdeg/(1+K2); KM = K1•K2/(1+K2); Fig. 4B
# [14] = system: ClpAP; conditions: ref Dougan et al., 2002; cited from earlier work
# [15] = system: ClpAP; conditions: H66A mutation; in words; ref Wang et al., 2008a; cited from earlier work
molecule,measurement,setting,value
LLYVQRDSKEC,"ClpA6 bound ClpS*^F more tightly, fold","[1]; excess peptide, compared with MLYVQRDSKEC peptide or absence of ligand",at least 9 fold
same,Kapp of ClpA6 for ClpS*^F in presence of peptide,"[1]; fluorescence anisotropy, 200 nM ClpS*^F, 20 μM peptide, ATPγS, Fig. 3A",< 20 nM
same,enhancement of ClpS*^F binding to ^ΔLClpA6 by N-end-rule peptide,[2],enhanced binding of ClpS*^F to ClpA6 but not to ^ΔLClpA6
LLYVQRDSKEC(fluorescein maleimide) [fluorescent N-end-rule peptide LLYVQRDSKEC-fl],Kd,[3],~3000 nM
same,Kd,[4],~3000 nM
same,Kd,[5],130 nM
same,Kd,[6],290 nM
same,Kd,[7],43 nM
"E. coli ClpS residues 2-106 (crystals of Schuenemann et al., 2009, re-refined here) (natural protein, UniProt P0A8Q6 2-106, looked up) GKTNDWLDFDQLAEEKVRDALKPPSMYKVILVNDDYTPMEFVIDVLQKFFSYDVERATQLMLAVHYQGKAICGVFTAEVAETKVAMVNKYARENEHPLLCTLEKA",binding result,[8],binds
"ClpS*^F (ClpS C73V; C101S; E96C labelled with fluorescein) (natural protein, E. coli, UniProt P0A8Q6 1-106, looked up, fluorescein maleimide on the single cysteine) MGKTNDWLDFDQLAEEKVRDALKPPSMYKVILVNDDYTPMEFVIDVLQKFFSYDVERATQLMLAVHYQGKAIVGVFTAEVAETKVAMVNKYARENCHPLLSTLEKA",Kd,[9],< 20 nM
same,Kd,[10],~180 nM
same,Kd,[11],200 ± 6 nM
"^Q12CClpS: Q12C ClpS variant, FeBABE attached to residue 12 (protein, UniProt P0A8Q6 1-106, looked up, variant Q12C, FeBABE attached at Cys12) ATP-dependent Clp protease …: MGKTNDWLDFDCLAEEKVRDALKPPSMYKVILVNDDYTPMEFVIDVLQKFFSYDVERATQLMLAVHYQGKAICGVFTAEVAETKVAMVNKYARENEHPLLCTLEKA",FeBABE cleavage requirement,[12],cleavage of ClpA required FeBABE-modified ^Q12CClpS and ATPγS
"ClpS: E. coli ClpS adaptor; folded core (residues 26-106) and N-terminal extension (residues 1-25) (protein, UniProt P0A8Q6 1-106, looked up) ATP-dependent Clp protease …: MGKTNDWLDFDQLAEEKVRDALKPPSMYKVILVNDDYTPMEFVIDVLQKFFSYDVERATQLMLAVHYQGKAICGVFTAEVAETKVAMVNKYARENEHPLLCTLEKA","K2 (unimolecular engagement step, global fit)",[13],0.37
same,degradation by ClpAP,[14],does not degrade
"H66A: H66A mutation of ClpS (protein, UniProt P0A8Q6 1-106, looked up, variant H66A) ATP-dependent Clp protease …: MGKTNDWLDFDQLAEEKVRDALKPPSMYKVILVNDDYTPMEFVIDVLQKFFSYDVERATQLMLAVAYQGKAICGVFTAEVAETKVAMVNKYARENEHPLLCTLEKA",KM and Vmax for ClpAP degradation of N-end-rule substrates,[15],increased KM and reduced Vmax
